Laboratory results published in US20090117551.

Columns and labels:
[1] = system: GFP-trypsin recognition peptide inserted modified protein
[2] = system: GFP-caspase-3 recognition peptide inserted modified protein

Substance | FRET between quantum dot and GFP after protease treatment (37 C, 120 minutes) [1] | FRET waveform pattern, simultaneous DNase/trypsin assay (QD565 with GFP of FIG. 5A) [1] | peak wavelength of fluorescence intensity [1] | FRET between quantum dot and GFP after protease treatment (30 C, 120 minutes) [2] | peak wavelength of fluorescence intensity [2]
Trypsin | the disappearance of FRET was observed | it was observed that the peak around 510 nm shifted | shifted from 513 nm (untreated with trypsin) to 508 nm (treated with trypsin) |  | 
Caspase-3 (Medical & Biological Laboratories) |  |  |  | the disappearance of FRET was observed | shifted from 510 nm (untreated with trypsin) to 506 nm (treated with trypsin)
